Values of other authors in article PMC4041481.

Target: His37 (UniProt position 37, IIGILHLILWI)
Details: M2 tetramer assembled in a lipid bilayer

Substance: Matrix protein 2 (M2 proton channel) (Influenza A virus (strain not stated))
- pKa: <5.0
